From patent publication US20120101255A1 (published 2012) come the findings set out here.

Assay [1] concerns the target Cx43 expressed in N2a (neuroblastoma) cells. The experiment in a line: cell-based or functional assay.
In assay [2] the target is T1, Recombinant Cx43CT (carboxyl terminal domain of rat connexin43, residues 255-382, preceded by GPLG) (rat, UniProt P08050 255-382).
T1 construct: range 255-382; Made as a GST fusion in E. coli and cleaved from GST; 15N-labelled for NMR; also called recombinant CT; carboxyl terminal domain of Cx43
T1 sequence (P08050 other isoform, or with tags, fused parts or gaps limits assumed): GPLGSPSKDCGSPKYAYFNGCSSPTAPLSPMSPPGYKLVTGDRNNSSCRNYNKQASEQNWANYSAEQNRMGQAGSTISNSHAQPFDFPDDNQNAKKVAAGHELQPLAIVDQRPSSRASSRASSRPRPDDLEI
The experiment in a line: SPR, Cx43CT immobilised, peptide 250 µM and higher. As for the experimental part: II: Applications to Biological Systems,” Biochim. Biophys. Acta 1331(2):131-152 (1997), which is hereby incorporated by reference in its entirety). Specific peptides were presented and, when feasible, dissociation constants (KD) were calculated from the time course of binding and unbinding of the ligand, using a 1:1 (Langmuir) association and dissociation kinetic model (Biacore software package). In both phases (association and dissociation), the first 5-8 seconds of recording were not included in the fit, to avoid artifacts resulting from peptide distribution within the flow cells (Lang et al., “Surface Plasmon Resonance as a Method to Study the Kinetics and Amplitude of Protein-protein Binding,” in PRACTICAL METHODS IN CARDIOVASCULAR […] 936-947 (Stefan Dhein, Friedrich Wilhelm Mohr & Mario Delmar eds., 2005), which is hereby incorporated by reference in its entirety).
Phage display allows for the rapid screening of thousands of peptides, but the characteristics of binding cannot be properly defined. Furthermore, the peptides are part of a capsid protein, which may affect the ability of the peptide to properly interact with the target protein. […] Higher concentrations of the peptide were tested but an asymptotic maximum response could not be detected.

Take SDDLRSPQLHNGGGSAVPFYSHSHMVRRKPRNPR [RXP-E]: in assay [1], the “junctional conductance (Gj) relative to control during octanol superfusion, RXP-E 0.1 mM in the pipette” value was 57.6 % of control and the “junctional conductance (Gj) relative to control with pipette solution at pH 6.2, RXP-E in the pipette” value is 57 % of control.

B1: RXP4 (peptide)
peptide: RRPPYRVPPKLF
notes: Synthetic 12-mer from the non-biased phage display screen
Consider B1, for which the binding result in assay [2] is reported as “binds”.
